Test results reported in patent publication US20140072613A1 (published 2014).

T1: PKCµ(h) (human, UniProt Q15139 1-912)
T1 sequence (looked up): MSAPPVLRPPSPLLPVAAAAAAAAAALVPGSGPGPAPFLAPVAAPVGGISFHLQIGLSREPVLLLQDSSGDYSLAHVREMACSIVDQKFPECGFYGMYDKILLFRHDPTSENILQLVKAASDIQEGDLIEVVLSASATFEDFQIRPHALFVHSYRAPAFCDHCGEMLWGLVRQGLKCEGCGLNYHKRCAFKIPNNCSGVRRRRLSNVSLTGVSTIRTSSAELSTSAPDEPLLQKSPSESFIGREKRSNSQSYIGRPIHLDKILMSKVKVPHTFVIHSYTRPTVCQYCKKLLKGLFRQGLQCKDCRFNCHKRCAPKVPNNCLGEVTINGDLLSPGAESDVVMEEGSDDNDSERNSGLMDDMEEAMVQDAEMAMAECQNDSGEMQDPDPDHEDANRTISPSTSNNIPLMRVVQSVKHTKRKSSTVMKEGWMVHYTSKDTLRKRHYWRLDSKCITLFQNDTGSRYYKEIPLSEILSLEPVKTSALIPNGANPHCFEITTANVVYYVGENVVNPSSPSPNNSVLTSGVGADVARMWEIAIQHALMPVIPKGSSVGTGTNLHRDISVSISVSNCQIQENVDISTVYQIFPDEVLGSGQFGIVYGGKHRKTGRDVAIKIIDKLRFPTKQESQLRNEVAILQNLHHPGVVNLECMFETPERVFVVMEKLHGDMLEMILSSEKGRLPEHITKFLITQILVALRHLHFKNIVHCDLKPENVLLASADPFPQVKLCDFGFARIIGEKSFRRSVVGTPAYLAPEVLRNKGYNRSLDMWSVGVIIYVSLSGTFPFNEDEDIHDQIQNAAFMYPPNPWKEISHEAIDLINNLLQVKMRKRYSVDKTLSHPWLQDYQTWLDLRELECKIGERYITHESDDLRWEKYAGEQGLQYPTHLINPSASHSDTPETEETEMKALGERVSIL

T2: IRAK4(h) (human, UniProt Q9NWZ3 1-460, limits assumed)
T2 sequence (looked up): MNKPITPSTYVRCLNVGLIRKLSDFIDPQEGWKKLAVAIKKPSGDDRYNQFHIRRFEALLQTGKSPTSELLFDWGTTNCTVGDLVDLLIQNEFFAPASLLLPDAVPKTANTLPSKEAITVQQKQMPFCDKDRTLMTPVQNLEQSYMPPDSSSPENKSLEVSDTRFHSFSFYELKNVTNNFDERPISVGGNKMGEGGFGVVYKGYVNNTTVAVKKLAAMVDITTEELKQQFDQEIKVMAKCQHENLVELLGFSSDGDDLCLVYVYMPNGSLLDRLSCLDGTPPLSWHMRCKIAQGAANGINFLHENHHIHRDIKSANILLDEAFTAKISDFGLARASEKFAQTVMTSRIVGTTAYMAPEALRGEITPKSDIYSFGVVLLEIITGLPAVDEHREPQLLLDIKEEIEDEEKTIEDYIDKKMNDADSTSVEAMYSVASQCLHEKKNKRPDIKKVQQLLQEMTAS

T3: Itk(h) (human, UniProt Q08881 352-620, limits assumed)
T3 sequence (looked up): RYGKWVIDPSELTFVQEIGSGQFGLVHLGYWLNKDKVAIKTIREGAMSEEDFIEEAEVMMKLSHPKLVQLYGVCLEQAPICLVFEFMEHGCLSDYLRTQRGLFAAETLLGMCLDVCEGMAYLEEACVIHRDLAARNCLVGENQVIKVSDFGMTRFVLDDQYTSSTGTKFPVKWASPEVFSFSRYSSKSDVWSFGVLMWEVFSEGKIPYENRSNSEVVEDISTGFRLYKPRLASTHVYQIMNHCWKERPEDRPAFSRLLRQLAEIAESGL

T4: Ret(h) (human, UniProt P07949 658-1114, limits assumed)
T4 sequence (looked up): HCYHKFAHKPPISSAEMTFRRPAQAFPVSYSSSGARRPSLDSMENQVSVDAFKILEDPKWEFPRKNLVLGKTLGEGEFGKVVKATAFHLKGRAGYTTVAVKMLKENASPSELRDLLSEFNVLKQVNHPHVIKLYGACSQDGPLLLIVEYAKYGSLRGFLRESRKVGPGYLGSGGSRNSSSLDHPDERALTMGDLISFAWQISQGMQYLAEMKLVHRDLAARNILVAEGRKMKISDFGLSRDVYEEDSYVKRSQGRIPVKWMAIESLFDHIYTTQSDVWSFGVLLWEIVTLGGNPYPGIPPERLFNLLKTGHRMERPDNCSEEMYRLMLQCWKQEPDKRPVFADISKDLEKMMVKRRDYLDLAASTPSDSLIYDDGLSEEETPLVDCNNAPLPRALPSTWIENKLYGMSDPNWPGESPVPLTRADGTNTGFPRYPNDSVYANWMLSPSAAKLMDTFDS

T5: SAPK3(h) (human, UniProt P53778 1-367)
T5 sequence (looked up): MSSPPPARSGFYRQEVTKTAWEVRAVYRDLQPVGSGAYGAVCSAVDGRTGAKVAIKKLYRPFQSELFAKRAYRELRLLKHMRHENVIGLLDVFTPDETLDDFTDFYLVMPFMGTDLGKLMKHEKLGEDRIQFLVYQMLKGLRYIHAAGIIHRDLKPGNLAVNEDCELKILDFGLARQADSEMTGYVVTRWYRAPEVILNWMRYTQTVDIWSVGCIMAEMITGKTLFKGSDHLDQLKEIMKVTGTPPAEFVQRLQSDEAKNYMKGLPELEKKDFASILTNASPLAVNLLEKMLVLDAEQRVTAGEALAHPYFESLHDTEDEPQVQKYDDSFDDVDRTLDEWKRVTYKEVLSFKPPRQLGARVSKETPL


Legend:
Assay in all cases: cell-based or functional assay
[1] = target: SIK(h) (human, UniProt P57059 1-783, limits assumed)
[2] = target: T1, PKCµ(h)
[3] = target: T2, IRAK4(h)
[4] = target: T3, Itk(h)
[5] = target: PKCα(h) (human, UniProt P17252 1-672)
[6] = target: T4, Ret(h)
[7] = target: IGF-1R(h), activated (human, UniProt P08069 959-1367, limits assumed)
[8] = target: MST3(h) (human, UniProt Q9Y6E0 1-443, limits assumed)
[9] = target: mTOR/FKBP12(h) (human, UniProt P42345 1362-2549; P62942 1-108)
[10] = target: T5, SAPK3(h)

IGF-1R(h), activated, sequence (P08069 959-1367 limits assumed): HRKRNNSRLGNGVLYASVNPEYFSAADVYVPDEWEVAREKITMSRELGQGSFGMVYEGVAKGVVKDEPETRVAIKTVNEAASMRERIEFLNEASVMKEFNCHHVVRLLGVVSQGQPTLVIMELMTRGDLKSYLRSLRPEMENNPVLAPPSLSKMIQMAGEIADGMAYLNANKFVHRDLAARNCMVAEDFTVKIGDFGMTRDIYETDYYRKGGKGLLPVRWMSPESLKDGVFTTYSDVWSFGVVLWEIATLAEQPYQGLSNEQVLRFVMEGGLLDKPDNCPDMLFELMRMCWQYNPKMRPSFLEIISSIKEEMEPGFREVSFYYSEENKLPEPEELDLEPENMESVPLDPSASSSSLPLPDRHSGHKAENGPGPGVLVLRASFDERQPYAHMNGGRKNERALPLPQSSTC
mTOR/FKBP12(h), sequence (P42345 1362-2549 limits assumed, chain 1 of 2): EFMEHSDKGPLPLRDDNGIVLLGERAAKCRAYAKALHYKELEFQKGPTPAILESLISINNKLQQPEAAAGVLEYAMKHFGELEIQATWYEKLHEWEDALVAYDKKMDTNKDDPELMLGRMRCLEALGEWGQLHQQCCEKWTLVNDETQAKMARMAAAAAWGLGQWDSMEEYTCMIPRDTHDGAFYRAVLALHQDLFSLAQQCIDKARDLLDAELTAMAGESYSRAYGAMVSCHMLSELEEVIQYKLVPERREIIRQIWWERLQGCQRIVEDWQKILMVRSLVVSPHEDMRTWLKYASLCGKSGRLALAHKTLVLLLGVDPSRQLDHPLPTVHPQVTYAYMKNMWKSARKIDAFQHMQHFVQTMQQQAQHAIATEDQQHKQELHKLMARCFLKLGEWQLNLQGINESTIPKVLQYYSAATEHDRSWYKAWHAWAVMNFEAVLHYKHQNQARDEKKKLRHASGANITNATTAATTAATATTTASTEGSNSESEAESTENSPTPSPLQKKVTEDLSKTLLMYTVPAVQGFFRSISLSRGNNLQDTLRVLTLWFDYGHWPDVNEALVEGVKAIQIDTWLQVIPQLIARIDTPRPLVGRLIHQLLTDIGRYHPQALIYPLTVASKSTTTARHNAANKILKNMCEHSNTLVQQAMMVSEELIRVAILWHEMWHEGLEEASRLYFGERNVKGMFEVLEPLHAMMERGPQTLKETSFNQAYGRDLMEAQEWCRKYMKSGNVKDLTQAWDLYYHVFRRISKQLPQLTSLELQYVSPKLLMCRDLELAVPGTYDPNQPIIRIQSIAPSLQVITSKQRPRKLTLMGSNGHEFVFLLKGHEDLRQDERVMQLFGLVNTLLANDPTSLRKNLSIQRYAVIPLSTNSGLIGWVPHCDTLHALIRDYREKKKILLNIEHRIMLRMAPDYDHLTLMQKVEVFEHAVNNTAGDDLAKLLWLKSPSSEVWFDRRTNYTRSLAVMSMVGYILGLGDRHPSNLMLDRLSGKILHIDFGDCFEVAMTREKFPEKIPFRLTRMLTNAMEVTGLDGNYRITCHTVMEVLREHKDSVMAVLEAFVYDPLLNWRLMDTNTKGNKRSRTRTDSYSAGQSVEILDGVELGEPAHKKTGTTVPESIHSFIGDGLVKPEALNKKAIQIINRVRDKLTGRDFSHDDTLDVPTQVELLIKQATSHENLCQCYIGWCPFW
mTOR/FKBP12(h), sequence (P62942 whole entry, chain 2 of 2): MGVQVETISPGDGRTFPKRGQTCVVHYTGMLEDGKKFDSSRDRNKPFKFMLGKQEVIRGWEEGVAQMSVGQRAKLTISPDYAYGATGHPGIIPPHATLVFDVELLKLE
MST3(h), sequence (Q9Y6E0 whole entry): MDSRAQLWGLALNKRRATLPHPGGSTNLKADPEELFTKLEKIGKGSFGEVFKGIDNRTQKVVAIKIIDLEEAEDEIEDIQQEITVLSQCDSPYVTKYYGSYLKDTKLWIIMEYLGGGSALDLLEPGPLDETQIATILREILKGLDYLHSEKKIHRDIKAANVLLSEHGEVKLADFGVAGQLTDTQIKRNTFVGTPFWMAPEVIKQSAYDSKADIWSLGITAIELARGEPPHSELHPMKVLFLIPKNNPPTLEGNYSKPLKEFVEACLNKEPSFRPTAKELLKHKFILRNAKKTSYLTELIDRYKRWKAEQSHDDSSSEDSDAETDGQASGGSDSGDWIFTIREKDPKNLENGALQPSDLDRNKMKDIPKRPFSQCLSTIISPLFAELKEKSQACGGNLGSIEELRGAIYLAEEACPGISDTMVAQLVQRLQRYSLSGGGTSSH
SIK(h), sequence (P57059 whole entry): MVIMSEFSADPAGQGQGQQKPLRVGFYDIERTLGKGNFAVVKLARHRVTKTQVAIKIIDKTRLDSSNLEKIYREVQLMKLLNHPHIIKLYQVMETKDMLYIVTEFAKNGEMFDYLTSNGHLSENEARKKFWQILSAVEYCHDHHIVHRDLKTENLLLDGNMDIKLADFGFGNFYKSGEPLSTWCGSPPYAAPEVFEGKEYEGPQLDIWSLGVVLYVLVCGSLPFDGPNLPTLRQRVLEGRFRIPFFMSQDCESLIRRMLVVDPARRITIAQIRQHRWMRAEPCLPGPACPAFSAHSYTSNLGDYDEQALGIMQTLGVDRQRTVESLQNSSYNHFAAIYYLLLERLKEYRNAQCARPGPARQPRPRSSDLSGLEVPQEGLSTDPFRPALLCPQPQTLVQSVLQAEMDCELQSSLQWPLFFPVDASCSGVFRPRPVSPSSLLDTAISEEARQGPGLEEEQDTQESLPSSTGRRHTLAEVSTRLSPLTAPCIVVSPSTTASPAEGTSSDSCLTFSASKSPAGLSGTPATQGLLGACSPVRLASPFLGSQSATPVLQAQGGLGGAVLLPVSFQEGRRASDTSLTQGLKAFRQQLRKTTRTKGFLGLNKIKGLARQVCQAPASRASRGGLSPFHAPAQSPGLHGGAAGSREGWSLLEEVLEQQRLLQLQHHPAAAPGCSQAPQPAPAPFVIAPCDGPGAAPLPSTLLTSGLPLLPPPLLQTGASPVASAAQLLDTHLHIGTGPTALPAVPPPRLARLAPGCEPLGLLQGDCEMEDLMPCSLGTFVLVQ

| Binder | % activity, 100 µM [1] [%] | % activity, 100 µM [2] [%] | % activity, 100 µM [3] [%] | % activity, 100 µM [4] [%] | % activity, 100 µM [5] [%] | % activity, 100 µM [6] [%] | % activity, 100 µM [7] [%] | % activity, 100 µM [8] [%] | % activity, 100 µM [9] [%] | % activity, 100 µM [10] [%] |
| --- | --- | --- | --- | --- | --- | --- | --- | --- | --- | --- |
| FAKLAARLYRKALARQLGVAA [MMI-0300] | 66 | 22 | 59 | 77 | 89 | 140 | 80 | 45 | 145 | 84 |
| KAFAKLAARLYRKALARQLGVAA [MMI-0400] | 68 | 14 | 59 | 63 | 86 | 145 | 77 | 36 | 125 | 79 |
